According to US11149086B2, “KV1.3 binding immunoglobulins” (Ablynx N.V., priority 2014, dated 2021):

Columns and labels:
cyno Kv1.3 = test: 125I-margatoxin competition on cyno Kv1.3 expressing CHO cells; format: binding, cynomolgus; conditions: 150 pM I125 margatoxin
Method: Periplasmic extracts were screened in a radioligand 125I-margatoxin competition assay to assess the blocking capacity of the expressed Nanobodies. Cynomolgous Kv1.3 was presented on CHO cells overexpressing Kv1.3.
In order to detect binding of margatoxin to cell expressed Kv1.3, a radiolabeled toxin was used (125I-margatoxin; MgTX; Perkin Elmer, NEX083). To setup the assay, first a titration series of the radiolabeled 125I-margatoxin was performed on the CHO-cyKv1.3 and parental CHO K1 cells. To have maximum sensitivity of the screening, the EC30 concentration (150 pM) was chosen for competition during screening and later on, also characterization.
In brief, 35 μl of periplasmic extract was added to 150 pM labeled margatoxin (50 μl) and 40000 CHO-cyKv1.3 cells that were seeded the day before in a poly-D-lysine coated 96-well plate (BD Biocoat, Cat354620) in a total of 200 μl. After two hours incubation at RT, cells were washed two times before read out was performed with 100 μl/well MicroScint-20 (Perkin Elmer) on a TopCount device (Perkin Elmer).
As reference compounds, a dilution series of ShK-1aJ (Smartox, #08SHK001) and unlabeled margatoxin (Alamone labs, Cat RTM-325) were included. […] For each sample the percentage block was determined using the control samples to determine the assay window. […]

human Kv1.3 = molecular target: T1, human Kv1.3 (Homo sapiens, UniProt P22001); test: FACS competition with FAM-labeled ShK on HEK293H human Kv1.3 cells; format: binding
T1 construct: cell lines stably expressing the full length human Kv1.3 channel
T1 sequence (P22001 whole entry): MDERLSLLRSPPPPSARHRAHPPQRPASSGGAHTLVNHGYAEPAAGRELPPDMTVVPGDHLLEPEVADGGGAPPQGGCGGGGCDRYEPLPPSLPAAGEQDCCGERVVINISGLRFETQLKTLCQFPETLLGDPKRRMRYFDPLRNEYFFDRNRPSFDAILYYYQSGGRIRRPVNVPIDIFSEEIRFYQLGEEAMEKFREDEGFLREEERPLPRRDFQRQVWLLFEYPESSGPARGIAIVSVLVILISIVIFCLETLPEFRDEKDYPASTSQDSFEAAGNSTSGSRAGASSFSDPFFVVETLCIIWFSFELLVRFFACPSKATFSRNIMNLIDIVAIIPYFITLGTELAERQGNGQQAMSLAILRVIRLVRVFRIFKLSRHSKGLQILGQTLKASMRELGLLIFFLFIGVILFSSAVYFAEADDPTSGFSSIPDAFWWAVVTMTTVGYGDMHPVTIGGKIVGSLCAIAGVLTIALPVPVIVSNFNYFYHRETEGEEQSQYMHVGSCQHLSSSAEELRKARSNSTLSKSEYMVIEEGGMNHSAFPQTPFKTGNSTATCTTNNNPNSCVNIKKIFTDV
Method: To evaluate the competition between the toxin ShK and the Nanobodies for binding to Kv1.3, a FACS competition experiment was performed using HEK293H cells overexpressing human Kv1.3 and the parental HEK293H cells as background cell line. As detection reagent, FAM-labeled ShK was used (6-FAM-AEEAc-Stichodactyla helianthus Neurotoxin (ShK) (Bachem, H-6088, 1046522, PRT00000366/01/01)). To setup the assay, first a titration series of the labeled Shk-FAM was performed on the HEK293H Kv1.3 cells in order to determine the EC50 value for binding.
In brief, a dilution series of ShK or Nanobody were added together with the labeled toxin to 200 000 cells in a 96-well plate. After 90 minutes incubation at 4° C., cells were washed three times before read out was performed on a FACS Canto (Becton Dickinson). First a gate was set on the intact cells as determined from the scatter profile. Next, dead cells were gated out by their fluorescence profile from the TOPRO stain (5 nM, Molecular probes, T3605). […] The percentage of inhibition for Nanobodies blocking the interaction of ShK to human Kv1.3 is depicted in Table B-11.

Sequence of cyno Kv1.3 (as listed by the source): as the sequence (P22001 whole entry) above, with R4H, P23A, H38P, R47P, T269P, E275D, S284A, R285A, S497A counted along it

B1: A019400003: monovalent anti-Kv1.3 Nanobody, family 1 (protein)
VHH: EVQLVESGGGLVQAGGSLSLSCTASGGTFRNFGMGWFRQAQGKEREFVAAISRTGGHTYYQDSVKGRFTISKDNAKNILSLQMNSLKPEDTAVYYCAARFRFGDGTYYYQRAFYDFWGQGTQVTVSS
modifications: Nanobody sequence
Cyno Kv1.3
  block of I125 margatoxin binding, in words: completely block
Human Kv1.3; 70 nM ShK-FAM
  blocking of FAM labeled ShK binding to Kv1.3, in words: only partially blocked
Human Kv1.3; 70 nM ShK-Fam (100x EC50), HEK 293H hu Kv1.3 cells
  % inhibition of ShK-Fam binding: 87.13%
